Tested on: PPO-deficient BT3 E. coli (ΔPPO)
Test: PPO-inhibiting herbicide tolerance test of PPO variants in E. coli (growth on herbicide-containing LB agar)
Format: cell-based
Conditions: CyPPO19 variants in BT3 (ΔPPO) E. coli; LB agar with 0 to 2,000 μM herbicide, 37° C., dark, 16-20 hours
Excerpt: To enhance the PPO-inhibiting herbicide resistance of CyPPO19 and CyPPO18, PPO variant genes of the above example 2 were constructed. They were transformed to BT3 (ΔPPO) strain which is deficient of PPO activity and cultured in LB media with PPO-inhibiting herbicide, thereby examining whether growth of transformed BT3 was not inhibited.
BT3 competent cells were transformed with the pET303-CyPPO19 (wild type), pET303-CyPPO18 (wild type) plasmids, and those with a mutation(s) constructed (refer to example 2) via heat shock method, and were cultured in LB agar media containing ampicillin.
Single colony transformed with each CyPPO gene was cultured in 3 mL of LB broth (LPSS) containing ampicillin for more than 12 hours, and then was subcultured in LB broth until absorbance (OD600) reached 0.5 to 1. Then, it was diluted with LB broth to OD600=0.5. Again, the diluted solution was serially diluted 4 times by a factor of one tenth.
The LB agar media (LB 25 g/L, Bacto agar 12 g/L) containing ampicillin (100 μg/mL) and 0 to 2,000 μM of various herbicides were prepared. Herbicide solution stocks were all prepared in DMSO.
Then, 10 μL of each diluted solution of E. coli was dropped on the plate and cultured at 37° C. under dark for 16-20 hours. PPO-inhibiting herbicide resistance was evaluated with the extent of E. coli growth containing each gene was observed.
The extent of herbicide resistance was evaluated by the relative growth of variants to that of wild type, and listed in Tables 9 and 10 and FIGS. 3 to 32.
In Tables 9 and 10, the tolerance level of variants showing equivalent resistance to wild type was presented as ‘−’, and was done as ‘+’ per each 10-fold resistance until ‘+++++’ as maximal resistance.
FIGS. 3 to 30 and FIGS. 31 and 32 show the transformed E. coli growth result of CyPPO19 WT and its variants and CyPPO18 WT and its variants, respectively. The concentrations of herbicides were written above the photographs of tolerance test. A 10-fold dilution series of spots were shown from OD600=0.5 of the leftmost spot to OD600=0.00005 of the rightmost one.

Molecule	tolerance level relative to wild type, Carfentrazone	tolerance level relative to wild type, Flumioxazin	tolerance level relative to wild type, Fomesafen	tolerance level relative to wild type, Oxyfluorfen	tolerance level relative to wild type, Saflufenacil	tolerance level relative to wild type, Sulfentrazone	tolerance level relative to wild type, Tiafenacil
CyPPO19 V165C + I408W + F360V: variant of CyPPO19 PPO protein (SEQ ID NO: 1) (protein, Synthetic_PPO of Thermosynechococcus elongatus PKUAC-SCTE542 (comprising GenBank No. CP032152.1)) MSEVDVAIVGGGLSGLSLAWRLQQSAPQYSVVLLEASDRLGGNITTQTAEGFVWELGPNSFAPTPALLQLIAEVGLQSELIRGDRHLPRYIYWRGQLYPLQPTRPLALATSNLLSPWGKVRAALGALGFVPPYLGSGDESVNSFFRRHLGQEVAERLVAPFVSGCYAGDPQQLSAAAAFRRIAQLEKLGGGLIAGALHLRRQQAPKPKPPTSVQMRPGELGSFKEGLAALPRAIAQQLKAPIHLQTPVQEITPDPKGGYLLRSGEQTWRARSVVLATPAYQTAELVAPFQPAIARVLATIPYPTVACVVLAYPAGLGRSVRPGFGVLIPRSQGIRTLGTIWSSCLFPQRTPAGWQVFTSVIGGATDPDLASLSEEAIVQQVQQDLNRLLDLPAAKARLLGMKVWRRAWPQYMVGYPEQWQQVTHALSQTPGLFLCSNYAEGVALGDRVEHGNRTAAAVAAYLSGGQP	+ (‘+’ per each 10-fold resistance)	++++ (‘+’ per each 10-fold resistance)	+++ (‘+’ per each 10-fold resistance)	++++ (‘+’ per each 10-fold resistance)	++++ (‘+’ per each 10-fold resistance)	+++ (‘+’ per each 10-fold resistance)	++++ (‘+’ per each 10-fold resistance)
CyPPO19 A167I + V305M + F360L: variant of CyPPO19 PPO protein (SEQ ID NO: 1) (protein, Synthetic_PPO of Thermosynechococcus elongatus PKUAC-SCTE542 (comprising GenBank No. CP032152.1)) MSEVDVAIVGGGLSGLSLAWRLQQSAPQYSVVLLEASDRLGGNITTQTAEGFVWELGPNSFAPTPALLQLIAEVGLQSELIRGDRHLPRYIYWRGQLYPLQPTRPLALATSNLLSPWGKVRAALGALGFVPPYLGSGDESVNSFFRRHLGQEVAERLVAPFVSGVYIGDPQQLSAAAAFRRIAQLEKLGGGLIAGALHLRRQQAPKPKPPTSVQMRPGELGSFKEGLAALPRAIAQQLKAPIHLQTPVQEITPDPKGGYLLRSGEQTWRARSVVLATPAYQTAELVAPFQPAIARVLATIPYPTMACVVLAYPAGLGRSVRPGFGVLIPRSQGIRTLGTIWSSCLFPQRTPAGWQVFTSLIGGATDPDLASLSEEAIVQQVQQDLNRLLDLPAAKARLLGMKVWRRAIPQYMVGYPEQWQQVTHALSQTPGLFLCSNYAEGVALGDRVEHGNRTAAAVAAYLSGGQP	+ (‘+’ per each 10-fold resistance)	+++++ (until ‘+++++’ as maximal resistance)	+++ (‘+’ per each 10-fold resistance)	+++ (‘+’ per each 10-fold resistance)	+++++ (until ‘+++++’ as maximal resistance)	+++++ (until ‘+++++’ as maximal resistance)	+++++ (until ‘+++++’ as maximal resistance)
CyPPO19 A167C + V305L + F360V: variant of CyPPO19 PPO protein (SEQ ID NO: 1) (protein, Synthetic_PPO of Thermosynechococcus elongatus PKUAC-SCTE542 (comprising GenBank No. CP032152.1)) MSEVDVAIVGGGLSGLSLAWRLQQSAPQYSVVLLEASDRLGGNITTQTAEGFVWELGPNSFAPTPALLQLIAEVGLQSELIRGDRHLPRYIYWRGQLYPLQPTRPLALATSNLLSPWGKVRAALGALGFVPPYLGSGDESVNSFFRRHLGQEVAERLVAPFVSGVYCGDPQQLSAAAAFRRIAQLEKLGGGLIAGALHLRRQQAPKPKPPTSVQMRPGELGSFKEGLAALPRAIAQQLKAPIHLQTPVQEITPDPKGGYLLRSGEQTWRARSVVLATPAYQTAELVAPFQPAIARVLATIPYPTLACVVLAYPAGLGRSVRPGFGVLIPRSQGIRTLGTIWSSCLFPQRTPAGWQVFTSVIGGATDPDLASLSEEAIVQQVQQDLNRLLDLPAAKARLLGMKVWRRAIPQYMVGYPEQWQQVTHALSQTPGLFLCSNYAEGVALGDRVEHGNRTAAAVAAYLSGGQP	+ (‘+’ per each 10-fold resistance)	+++++ (until ‘+++++’ as maximal resistance)	+ (‘+’ per each 10-fold resistance)	++ (‘+’ per each 10-fold resistance)	+++++ (until ‘+++++’ as maximal resistance)	+ (‘+’ per each 10-fold resistance)	++++ (‘+’ per each 10-fold resistance)
CyPPO19 V165C + I408W + F360T: variant of CyPPO19 PPO protein (SEQ ID NO: 1) (protein, Synthetic_PPO of Thermosynechococcus elongatus PKUAC-SCTE542 (comprising GenBank No. CP032152.1)) MSEVDVAIVGGGLSGLSLAWRLQQSAPQYSVVLLEASDRLGGNITTQTAEGFVWELGPNSFAPTPALLQLIAEVGLQSELIRGDRHLPRYIYWRGQLYPLQPTRPLALATSNLLSPWGKVRAALGALGFVPPYLGSGDESVNSFFRRHLGQEVAERLVAPFVSGCYAGDPQQLSAAAAFRRIAQLEKLGGGLIAGALHLRRQQAPKPKPPTSVQMRPGELGSFKEGLAALPRAIAQQLKAPIHLQTPVQEITPDPKGGYLLRSGEQTWRARSVVLATPAYQTAELVAPFQPAIARVLATIPYPTVACVVLAYPAGLGRSVRPGFGVLIPRSQGIRTLGTIWSSCLFPQRTPAGWQVFTSTIGGATDPDLASLSEEAIVQQVQQDLNRLLDLPAAKARLLGMKVWRRAWPQYMVGYPEQWQQVTHALSQTPGLFLCSNYAEGVALGDRVEHGNRTAAAVAAYLSGGQP	+ (‘+’ per each 10-fold resistance)	++++ (‘+’ per each 10-fold resistance)	+ (‘+’ per each 10-fold resistance)	++ (‘+’ per each 10-fold resistance)	++++ (‘+’ per each 10-fold resistance)	+++ (‘+’ per each 10-fold resistance)	++++ (‘+’ per each 10-fold resistance)
CyPPO19 A167L + V305M + F360T: variant of CyPPO19 PPO protein (SEQ ID NO: 1) (protein, Synthetic_PPO of Thermosynechococcus elongatus PKUAC-SCTE542 (comprising GenBank No. CP032152.1)) MSEVDVAIVGGGLSGLSLAWRLQQSAPQYSVVLLEASDRLGGNITTQTAEGFVWELGPNSFAPTPALLQLIAEVGLQSELIRGDRHLPRYIYWRGQLYPLQPTRPLALATSNLLSPWGKVRAALGALGFVPPYLGSGDESVNSFFRRHLGQEVAERLVAPFVSGVYLGDPQQLSAAAAFRRIAQLEKLGGGLIAGALHLRRQQAPKPKPPTSVQMRPGELGSFKEGLAALPRAIAQQLKAPIHLQTPVQEITPDPKGGYLLRSGEQTWRARSVVLATPAYQTAELVAPFQPAIARVLATIPYPTMACVVLAYPAGLGRSVRPGFGVLIPRSQGIRTLGTIWSSCLFPQRTPAGWQVFTSTIGGATDPDLASLSEEAIVQQVQQDLNRLLDLPAAKARLLGMKVWRRAIPQYMVGYPEQWQQVTHALSQTPGLFLCSNYAEGVALGDRVEHGNRTAAAVAAYLSGGQP	+ (‘+’ per each 10-fold resistance)	+++++ (until ‘+++++’ as maximal resistance)	+++ (‘+’ per each 10-fold resistance)	+++ (‘+’ per each 10-fold resistance)	+++++ (until ‘+++++’ as maximal resistance)	+++++ (until ‘+++++’ as maximal resistance)	++++ (‘+’ per each 10-fold resistance)

From US12698507B2, “Methods and compositions for conferring and/or enhancing herbicide tolerance using protoporphyrinogen IX oxidase of various cyanobacteria or variant thereof” (FarmHannong Co., Ltd., priority 2019, dated 2026)
